Data on one molecule can be found in patent publication US20100160234A1.

This test deals with Native eIF4E of High Five (Trichoplusia ni) insect cells (Trichoplusia ni). Put plainly: cell-based or functional assay.

B1: his-tagged PVY VPg protein (protein, not shown: small tags and cut ends)
chain: GKNKSKRIQALKFRHARDKRAGFEIDNNDDTIEEFFGSAYRKKGKGKGTTVGMGKSSRRFINMYGFDPTEYSFIQFVDPLTGAQIEENVYADIRDIQERFSEVRKKMVENDDIEMQALGSNTTIHAYFRKDWSDKALKIDLMPHNPLKVCDKTNGIAKFPERELELRQTGPAVEVDVKDIPAQEVEHE
With B1, the eIF4E in cytoplasm (%), 12 h p.i., cell fractionation, Western blot and densitometry was found to be 53.5%; the eIF4E in cytoplasm (%), 24 h p.i., cell fractionation, Western blot and densitometry is 81.3%; the eIF4E in cytoplasm (%), 36 h p.i., cell fractionation, Western blot and densitometry was 83.3%; the eIF4E in cytoplasm (%), 48 h p.i., cell fractionation, Western blot and densitometry came to 74.1%. The same molecule registered an eIF4E in nucleus (%), 12 h p.i., cell fractionation, Western blot and densitometry of 46.5%; an eIF4E in nucleus (%), 24 h p.i., cell fractionation, Western blot and densitometry of 18.7%; an eIF4E in nucleus (%), 36 h p.i., cell fractionation, Western blot and densitometry of 16.7%; an eIF4E in nucleus (%), 48 h p.i., cell fractionation, Western blot and densitometry of 25.9%.
